B1: Protein Rep68 (Adeno-associated virus 2 (isolate Srivastava/1982)), P03132 (parent)
chain: MPGFYEIVIKVPSDLDGHLPGISDSFVNWVAEKEWELPPDSDMDLNLIEQAPLTVAEKLQRDFLTEWRRVSKAPEALFFVQFEKGESYFHMHVLVETTGVKSMVLGRFLSQIREKLIQRIYRGIEPTLPNWFAVTKTRNGAGGGNKVVDECYIPNYLLPKTQPELQWAWTNMEQYLSACLNLTERKRLVAQHLTHVSQTQEQNKENQNPNSDAPVIRSKTSARYMELVGWLVDKGITSEKQWIQEDQASYISFNAASNSRSQIKAALDNAGKIMSLTKTAPDYLVGQQPVEDISSNRIYKILELNGYDPQYAASVFLGWATKKFGKRNTIWLFGPATTGKTNIAEAIAHTVPFYGCVNWTNENFPFNDCVDKMVIWWEEGKMTAKVVESAKAILGGSKVRVDQKCKSSAQIDPTPVIVTSNTNMCAVIDGNSTTFEHQQPLQDRMFKFELTRRLDHDFGKVTKQEVKDFFRWAKDHVVEVEHEFYVKKGGAKKRPAPSDADISEPKRVRESVAQPSTSDAEASINYADRLARGHSL

Variants of: B1
Conditions: with tcp4_human SUB1, P53999
With K340H the “effect of a mutation on the interaction” value was “disrupting interaction”.
